Values of other authors, collected in PMC7020651.
pKd: −log10 of the molar value.

Legend:
[1] = biological target: Histone H4 1-12 (Homo sapiens) (UniProt P62805)
[2] = biological target: Histone H4 (Homo sapiens) (UniProt P62805); assay: ITC

Substance	pKd [1]	pKd [2]
P/CAF bromodomain (from UniProt Q92831)	3.46	
TAFII250 tandem bromodomains (from UniProt P21675)		4.40
